This note sets out measurements from patent US10724034B2, “Genetic encoding of chemical post-translational modification for phage-displayed libraries” (THE GOVERNORS OF THE UNIVERSITY OF ALBERTA, priority 2014, dated 2020).

Test [1] concerns the target streptavidin (UniProt P22629). As to the kind of experiment: panning/deep seq., Streptavadin rep 3.
The target in test [2] is streptavidin (UniProt P22629). As to the kind of experiment: panning/deep seq., Streptavadin rep 2.
Test [3] has as its target streptavidin (UniProt P22629). As to the kind of experiment: panning/deep seq., Ratio col 2 (Streptavadin/Naive by arithmetic).
In test [4] the target is streptavidin (UniProt P22629). The test can be described thus: panning/deep seq., Ratio col 3 (Streptavadin/Bulk amplified by arithmetic).
For test [5], the target named is streptavidin (UniProt P22629). As to the kind of experiment: panning/deep seq., Streptavadin rep 1.
For test [6], the target named is streptavidin (UniProt P22629). The test can be described thus: panning/deep seq., Ratio col 1 (Streptavadin/Blank by arithmetic).
In test [7] the target is T1, Bovine carbonic anhydrase II (bovine, UniProt P00921 2-260).
T1 construct: Commercial protein; also called BCA
As to the kind of experiment: panning/deep seq., Ratio col 3 (Carbonic/Bulk amplified by arithmetic) [Carbonic Anhydrase].

Test [8] deals with T1, Bovine carbonic anhydrase II. As to the kind of experiment: panning/deep seq., Carbonic rep 2 [Carbonic Anhydrase].
Test [9] shares this target. The test can be described thus: panning/deep seq., Ratio col 2 (Carbonic/Naive by arithmetic) [Carbonic Anhydrase].
The target is the same in test [10]. As to the kind of experiment: panning/deep seq., Carbonic rep 3 [Carbonic Anhydrase].
Test [11] has the same target. The test can be described thus: panning/deep seq., Ratio col 1 (Carbonic/Blank by arithmetic) [Carbonic Anhydrase].
Test [12] has the same target. As to the kind of experiment: panning/deep seq., Carbonic rep 1 [Carbonic Anhydrase].

T1 sequence (P00921 2-260 limits assumed): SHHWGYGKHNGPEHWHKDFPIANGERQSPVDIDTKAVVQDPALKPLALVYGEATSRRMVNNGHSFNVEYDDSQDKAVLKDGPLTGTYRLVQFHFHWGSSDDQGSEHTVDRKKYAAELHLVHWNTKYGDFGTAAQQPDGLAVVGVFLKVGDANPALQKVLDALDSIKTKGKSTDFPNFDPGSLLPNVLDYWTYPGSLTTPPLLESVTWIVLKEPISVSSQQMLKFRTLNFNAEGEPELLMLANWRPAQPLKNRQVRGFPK
Chain of streptavidin (P22629 37-163 limits assumed): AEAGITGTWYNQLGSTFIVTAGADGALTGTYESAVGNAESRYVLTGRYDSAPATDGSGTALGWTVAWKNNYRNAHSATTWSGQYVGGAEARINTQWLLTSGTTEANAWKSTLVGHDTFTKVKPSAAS

In the case of Bio-AHPL (peptide), the copy number in [1] is 333; in test [2], 113; in test [5], 382. Further, the Ratio in test [3] came out at 138; in test [4], 138; in [6] it was 920.

In the case of Bio-GYTQ (peptide), the copy number turned out to be 147 in [1], 227 in [2] and 240 in test [5]. The Ratio in test [3] was determined as 68; in test [4] it was 614; in test [6] it was 682.

As to Bio-HFTN (peptide), the copy number in [1] turned out to be 98; in test [2], 135; in test [5] it was 246. The values for the Ratio in test [3], in [4] and in [6] were 532, 68 and 532, respectively.

In the case of Bio-HKLN (peptide), the copy number in test [1] is 72; in test [2], 98; in test [5] it was 95. Also, the Ratio in [3] was found to be 88; in [4] it was 12; in test [6], 294.

For Bio-HLRV (peptide), the copy number was determined as 168 in [1], 110 in test [2] and 58 in test [5]. Moreover, the Ratio in test [3] was found to be 373; in test [4], 56; in test [6], 373.

Take Bio-HMPR (peptide): the copy number amounted to 71 in test [1], 121 in test [2] and 118 in test [5]. In addition, the Ratio in [3] turned out to be 52; in [4], 44; in [6] it was 344.

For Bio-HPSY (peptide), the copy number in test [1] amounted to 104; in test [2] it was 214; in test [5], 85. Besides, the figures for the Ratio in [3], in test [4] and in [6] were 67, 58 and 448, respectively.

For Bio-PALP (peptide), the copy number in [1] came out at 210; in [2], 108; in test [5], 125. In addition, the Ratio in [3] is 492; in [4], 89; in test [6], 492.

Take Bio-PFVQ (peptide): the copy number in test [1] came to 54; in test [2], 61; in test [5] it was 82. For the same substance, the figures for the Ratio in test [3], in test [4] and in test [6] were 219, 99 and 219, respectively.

Consider Bio-PHLP (peptide), for which the copy number in test [1] came to 123; in [2], 37; in [5], 84. The figures for the Ratio in test [3], in [4] and in test [6] were 14, 15 and 271, respectively.

For Bio-PHYN (peptide), the results for the copy number in test [1], in test [2] and in test [5] were 70, 110 and 53, respectively. Besides, the Ratio in [3] is 21; in test [4] it was 58; in test [6], 259.

Turning to Bio-PLAQ (peptide), the copy number came to 50 in test [1], 71 in test [2] and 110 in test [5]. The Ratio in test [3] is 38; in test [4], 33; in test [6], 257.

As for Bio-PQMS (peptide), the copy number in [1] was determined as 453; in test [2] it was 248; in test [5], 282. The Ratio in [3] is 41; in [4] it was 197; in [6], 1090.

As to Bio-PSIG (peptide), the copy number in [1] worked out at 174; in test [2] it was 125; in test [5], 145. The Ratio was 21 in test [3], 56 in test [4] and 493 in test [6].

For the substance Bio-PTHT (peptide), the copy number was 118 in test [1], 178 in test [2] and 154 in test [5]. In addition, the Ratio came out at 75 in [3], 64 in test [4] and 500 in test [6].

As to Bio-PVSI (peptide), the figures for the copy number in test [1], in [2] and in test [5] were 128, 94 and 75, respectively. Moreover, the Ratio in test [3] is 49; in test [4] it was 74; in [6], 330.

With Bio-VHAW (peptide), the values for the copy number in [1], in test [2] and in test [5] were 119, 39 and 73, respectively. Further, the Ratio stood at 257 in test [3], 38 in test [4] and 257 in test [6].

For Bio-VHNT (peptide), the copy number in test [1] stood at 110; in test [2] it was 87; in test [5] it was 29. Moreover, the figures for the Ratio in test [3], in [4] and in test [6] were 75, 75 and 251, respectively.

With Bio-WYPH (peptide), the copy number in [1] came to 127; in [2] it was 150; in test [5], 85. The Ratio turned out to be 121 in test [3], 72 in test [4] and 402 in test [6].

As to Bio-YMNN (peptide), the copy number in test [1] came out at 40; in test [2], 134; in test [5], 110. Also, the Ratio in test [3] came out at 24; in test [4], 142; in test [6] it was 316.

Consider SA-QIEH (peptide), for which the Ratio in test [7] came to 2; in test [9] it was 3; in test [11] it was 91. Moreover, the copy number in [8] was determined as 20; in test [10], 27; in [12] it was 35.

For the substance SA-TAFI (peptide), the Ratio in [7] was 75; in [9], 167; in test [11], 167. For the same substance, the copy number in test [8] came out at 58; in test [10], 48; in test [12] it was 44.

For SA-WFKL (peptide), the Ratio in test [7], in [9] and in [11] was 11 throughout. Also, the copy number worked out at 5 in test [8], 2 in test [10] and 3 in [12].

Consider SA-WKQQ (peptide), for which the Ratio in test [7], in [9] and in test [11] was 10 in each case. Also, the copy number amounted to 2 in test [8], 4 in test [10] and 3 in test [12].

Turning to SA-WLVL (peptide), the Ratio in [7], in test [9] and in test [11] was 12 in each case. Further, the copy number in test [8] was found to be 4; in test [10] it was 3; in test [12], 4.

Regarding SA-WNSK (peptide), the Ratio in [7], in test [9] and in [11] was 10 throughout. Moreover, the values for the copy number in test [8], in test [10] and in test [12] were 4, 2 and 3, respectively.

As for SA-WNTK (peptide), the results for the Ratio in test [7], in test [9] and in test [11] were 38, 19 and 672, respectively. The copy number in test [8] was found to be 256; in test [10], 228; in test [12], 121.

With SA-WPPP (peptide), the Ratio in test [7] worked out at 35; in test [9] it was 6; in test [11], 39. The copy number in test [8] amounted to 10; in [10], 15; in [12], 10.
